Measurements: article PMC7364481, “Identification and validation of the phosphorylation sites on Aristaless-related homeobox protein”

Assays:
Test in all cases: EMSA; 5 ug protein per lane; LightShift chemiluminescent EMSA kit, 6% polyacrylamide gel, 5 ug protein per lane; binding buffer, salt, pH and temperature not stated (protein eluted in 50 mM Tris-Cl pH 8.0, 30 mM glutathione)
Conditions in all cases: protein: recombinant; tags: N-terminal GST (pGEX-4T-2); label: biotin; blunt
[1] = molecular target: GST-ARX(220-392) S266A (UniProt O35085 220-392, S266A)
Chain of GST-ARX(220-392) S266A (O35085 220-392 S266A): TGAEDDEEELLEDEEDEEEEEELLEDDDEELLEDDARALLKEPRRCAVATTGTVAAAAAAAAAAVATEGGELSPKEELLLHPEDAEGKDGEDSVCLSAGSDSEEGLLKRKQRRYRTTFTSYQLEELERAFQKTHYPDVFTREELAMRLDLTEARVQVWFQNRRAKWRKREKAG

[2] = molecular target: GST-ARX(220-392) S266E (UniProt O35085 220-392, S266E)
Chain of GST-ARX(220-392) S266E (O35085 220-392 S266E): as the sequence (O35085 220-392 S266A) above, with A47E counted along it

[3] = molecular target: GST-ARX(220-392) WT (UniProt O35085 220-392)
Chain of GST-ARX(220-392) WT (O35085 220-392): as the sequence (O35085 220-392 S266A) above, with A47S counted along it

Measured: binding result

B1: SIX1 probe (dsDNA)
DNA 1: TCTTAACATTAAGGTAATTAAATATGAGCTCAC
DNA 2: GTGAGCTCATATTTAATTACCTTAATGTTAAGA
binds: all assays above
